Publication PMC9467883, “Autoinhibition of the GEF activity of cytoskeletal regulatory protein Trio is disrupted in neurodevelopmental disorder-related genetic variants” (The Journal of Biological Chemistry, 2022)

Legend:
[1] = molecular target: Human Rac1 (human, UniProt P63000 1-192); assay: BLI; ForteBio BLItz; His-GEF1 (0.5 uM) or SR6-GEF1 (2 uM) loaded on Ni-NTA biosensors; nucleotide-free Rac1 at 4-5 concentrations in assay buffer (20 mM Hepes pH 7.25, 150 mM KCl, 5% glycerol, 0.01% TritonX-100, 1 mM DTT); Kd = koff/kon from the linear fit of kobs against Rac1 concentration; settings: both partners purified
[2] = molecular target: Human Rac1 (human, UniProt P63000 1-192); assay: as above; settings: both partners purified; remark: listed apart in the source

Row | Binder | Kd [1] [nM] | Kd [2] [nM]
1 | Human Trio SR6-GEF1 (domain or fragment, Trio, human, spectrin repeats 6-9 appended to the GEF1 domain, 99 kDa; amino acids 788 to 1599 as stated for SR6-GEF1 in the modelling paragraph; Cloned into the pFastBac1 HTa vector; The limits 788-1599 are printed for the modelled SR6-GEF1, not in the cloning paragraph; also called His-SR6-GEF1; WT SR6-GEF1; source: Hi5 cells infected with baculovirus, purified (Ni-NTA, S200 Increase)) not shown | 316 | 
2 | Human Trio GEF1 (domain or fragment, His tag omitted (used for Ni-NTA immobilization). The GEF1 limits are not printed: the C-terminus 1599 comes from the printed SR6-GEF1 construct (788-1599), and the N-terminus about 1284 follows the …) not shown |  | 151
